Experimental data published in patent US7460961B2, “N-TRADD active site and uses thereof” (Genetics Institute, LLC, priority 2000, dated 2008).

Experiment: Solubility and stability of the N-TRADD NMR sample
Type: physicochemical
Text: Cloning and site directed mutagenesis: The DNA sequence coding for the first 169 amino acids from N-TRADD was cloned in pRSETB (Invitrogen) after amplification by PCR. The primer at the 5′ end introduces an NdeI site upstream from the initiation site, and the primer at the 3′ end introduces a His tag after aa169. The sequence was confirmed by sequencing analysis. Single point mutations were introduced using Chameleon double-stranded site directed mutagenesis (Stratagene). The C-TRAF2 sequence (residues 262 to 501 of human TRAF2) was amplified by PCR using a 5′ end primer flanking with an XhoI and NdeI site, which introduces a Met before residue 262, and a 3′ end primer introducing 6×His before a stop codon followed by a NcoI site. The C-TRAF2 sequence was cloned into pAcSG2 (Pharmingen) by XhoI and NcoI sites for baculovirus expression. Protein expression and purification: The polypeptide for N-TRADD (1-169) was overexpressed in BL-21 E. coli. [U-^15N] or [U-^13C, U-^15N]. N-TRADD was purified from cells grown at 25° C. on minimal medium containing 2 g/L […] or [^15N]ammonium sulfate and 2 g/L [U-^13C]glucose. […]
Structure Determination: The structure of N-TRADD was determined from 2302 NMR derived restraints obtained using uniformly ^15N and ^15N/^13C labeled protein, with double and triple resonance NMR experiments. […]

B1: N-TRADD: N-terminal domain (amino acid residues 1-169, SEQ ID NO:1) of human TNFR-1 associated death domain protein (protein)
chain: MAAGQNGHEWVGSAYLFVESSLDKVVLSDAYAHPQQKVAVYRALQAALAESGGSPDVLQMLKIHRSDPQLIVQLRFCGRQPCGRFLRAYREGALRAALQRSLAAALAQHSVPLQLELRAGAERLDALLADEERCLSCILAQQPDRLRDEELAELEDALRNLKCGSGAR
For B1, the solubility (dithiothreitol (20 mM) required to prevent aggregation) was ~1000 µM and the sample stability (~1 mM, 20 mM dithiothreitol) was 6-8 weeks.
